Experimental findings from a protein production outcome set (Wang et al. 2014) are described below.

This series can be described thus: label from the status in PepcDB records.
With “MRYEKMNQEILAAIGGEENIQSVVHCATRLRFVLKDESKADDKKAEAIDGILQVVKKGGQYQLVIGNNVEDVYDDLINMIHIETSDSNKPKKKQNLFDAIIGAITGSIAPAIPLLAGAGMGKVLLLILTICHVLSDKSQTYQLLNLIFDTGYYFMPAYVGFSAAKIFNTDRMLGAFIGLMTVHPSWVQIVTTNKPFHFLGLPVPLVQYSSTLITAILSVWIMSYIYKFVRKITPGMVKVFMEPMLTMLITGPLVFLIIGPISNWISEGIGFIAMWLFRNAGVIAIPILAALYPWLVSIGIHKALSPISIQLVATQGFDPIIRVVALCSNMSQAAASLAVGLKTKNKKLKSLALSSSVTAYLGGITEPALFGVNLRLKKPMYGAMIGGAIAGIVASFMKLKAFIYVTPAFLSLPMWISKTENFVVQAIIVIIVASVATFIATWIIGFDDPIDEDQVKNAKKEEKKNFDKDHKKHELHAPVKGQLEDISKVADPTFASGVMGKGIAIVPSEGKIFAPEDGVVTAIFDTHHAIGLHLSNDADVLIHVGIDTVEMKGKGFKQLVQKGDKVTAGQELLDFNIDEIKKNGYDPTVVMIVTNSKDFLEVLTVLKDKDATKEVTNQDNVIILA”, the protein production result was “failed”.
As for “MRYLIGGIFLLISIWQFIVTGRTFSYLKKEGGKRTSPFILLGLWSSLVFAIISFAVAIASFFYVSF”, the entry is “failed”; as for “MRYLVWALRLLVFVAVLMFALKNTNPVAVTFYADYVVHDVPLIVVMLVVFVVGALFGLLLTVPAAMRRRREALRLRREVERLQAAASGTPPVVTPEAVAPMSPL”, “failed”.
“MRYRRAARPVATVLIHAMQTYPLVFHASPDQTIAWRDGAPVAVRTFLAEVAQLAAALPAGAHVFNACTDRYRFTVGLCATLVAGKISLLPASQTPETVRRLAAFAPDVFCLHDAPDCAIALPRFRFPEPLPPAGADAPVDVPQIDASRVMAYIFTSGSTGTPVPHRKTWGALVEGVRASAARLGLLDAHACTLVGTVPPQHMYGFESTVLLALVGGLAFSNRLPFYPADIRAALEAVPQPRVLVTSPIHLRALLSSERALPPAALVLSATAALPEPLASEAEARLAAPLIEIYGSTETGQIATRRTAQGATWHLQPGIRLEARAGTPDEDGPVTWASGAHLDAPVPMGDTLELIDDTHFLLHGRKADLINVAGKRTSLAYLNHQLNAIPGVEDGVFFMPSAADNGSEPPARLAALVVAPELAAADLLHALRERIDPAFLPRPLLLVEALPRDATGKLPRDALAALIAQHGHRGARAGAPAPITFTIPADHPALPGHFPGHPIVPGVVLLDQAIRRIGAALNRPFDACRLSSAKFLSPAAPGVPLALAFEATASGAIRFTVSAGEREVASGVLAQQEAARP”: the protein production result is given as “failed”.
As for “MRYSLFKNYLPKEEVPEIRKELIKLALPAMGENVLQMLFGMADTAFLGHYSWKAMSGVGLSNQVFWVVQVVLIAASMGATVTIANAIGAGNRKAVRSLAWNSVFLAIFTGVILTALTPLSDVLINIFPNLEGEIESSAKEYLKVILSGSMGFSIMAVFSAMLRGAGDTRTPMIVTGLTNFLNIFLDYAMIFGKFGFPEMGVRGAAVATILSRFVGAGILTYVIFKREEFQLRKGLVPPKWSSQKEILRVGFPTAIENFVFSTGVLMFANILLIAGAEAYAGHRIGINVESLSFMPAFGISVAITTLVGRYNGMGNKEHVLGVIRQGWILSLLFQVTVGIIIFLFPEPLIRIFTSDPQIIEISKLPVKIIGLFQFFLAIDSTMNGALRGTGNTLPPMIITFISIWTARLPVAFVMVKYFQLGLLGAWIGMIADIIFRSTLKLLFFLSGKWEKRAVLTRERVKELG”, the entry is “failed”; as for “MRYVVGHKNPDTDSIASAIVLAYFLDCYPARLGDINPETEFVLRKFGVMEPELIESAKGKEIILVDHSEKSQSFDDLEEGKLIAIIDHHKVGLTTTEPILYYAKPVGSTATVIAELYFKDAIDLIGGKKKELKPDLAGLLLSAIISDTVLFKSPTTTDLDKEMAKKLAEIAGISNIEEFGMEILKAKSVVGKLKPEEIINMDFKNFDFNGKKVGIGQVEVIDVSEVESKKEDIYKLLEEKLKNEGYDLIVFLITDIMKEGSEALVVGNKEMFEKAFNVKVEGNSVFLEGVMSRKKQVVPPLERAYNG”, “not failed”; as for “MSAAIAALAASYGSGSGSESDSDSEGSRCPLPAADSLMHLTKSPSAKPSLTVAVDSAPEVAVKEDLETGVHLDPAVKEVQYNPTYETMFAPELLPSHXSXPFEQWHHPRELPTGTRVPAPVTXALFPQERGSVICTCLLSGYALDPSLDNHQVSAKYIGSVEDAEKNQGLTVFETGQKKTEKRKKFKENDASNIDGFLGPWAKYVDEKDVAKPSEEEQKELDEITAKRQKKGKQEEEKPGEEKTILHVKEMYDYQGRSYLHIPQDVGVNLRSSVPPEKCYLPKKQIHVWSGHTKGVSAVRLFPLSGHLLLSCSMDCKIKLWEVYGDRRCLRTFIGHSKAVRDICFNTAGTQFLSAAYDRYLKLWDTETGQCISRFTNRKVPYCVKFNPDEDKQNLFVAGMSDKKIVQWDIRSGEIVQEYDRHLGAVNTIVFVDENRRFVSTSDDKSLRVWEWDIPVDFKYIAEPSMHSMPAVTLSPNGKWLACQSMDNQILIFGAQNRFRLNKKKIFKGHMVAGYACQVDFSPDMSYVISGDGNGKLNIWDWKTTKLYSRFKAHDKVCIGAVWHPHETSKVITCGWDGLIKLWD”, “failed”.
The entry for “MSAEAADREAVSGSRPCTPPQTSWFEFLLNPSLLEQHLHSPHPDPSPVQLIFQFLEQASKPSVNEQNQVQPPVDNRRNRTLKLMALKVAAHLRWDLNMLEKGLTIPVLNMLLNELLCVSHVPPGVKHVDLDLSSLPPTTAMAVVFYNRWAIRTIVLSSFPEKQTKPGPHQLNMMNMLQQEKEHTENILSVLREQATDSIMVLEGALSIKKDFYIHL” is “not failed”.
As for “MSAGEHAGGVFLGGIAIDEPTREAARAMVDRDREEFLPADPVAWVDDQLSELDDAFLRPAVNVRAVRLGPLRDVAAVCAAHDAILEVNAHCRQDELCDAGAGETLLRDTSRLCEQVRAASDEGAAVSVKVRAGVQGVHLPVLAQAIERAGAAAIHVDAMDSRRVVRDVADATALFVVANNGVRTRDDVFEYLSYGADAVSVGRPSRDPERVRAVYAAVKEWLL”, the entry is “failed”; as for “MSAHLLIILPLIIPFVAAVAALLFARWPTVQKGINIVSMGGILAASLGLLSRITEQGIQVTTIGDWPVPFGIVFVVDHLSVVMLIVSAIIGLAVAVYAVPDVDDARVRFGFYPFFNLLMIGINGAFLTGDLFNLYVWFEVMLISSFVLIVLGNTDEQLAGAVKYVVINLVSSLLFLSGVGLVYGMTGTLNMAELSLALSEVGQPGLVTVVAMLFLISFGIKAALFPLFFWLPASYHTPPASVSAFFAGLLTKVGVYALFRVFTLLFTQDVGYTHTLLLWGAGLTMVTGVLGAAVQNDFRRVLSFHIVSQIGYMIMGLALYTPLAILGGVFYIVHHIIVKANLFLVSGVAKRLRGSFSLKSLDGLYAYHPWLAALFIIPAFSLAGFPPLSGFWAKLILTIAGIETGAYWIVTVAVAVGLFTMFSMTKIWVKAFLPGGGGDLADAVSSMGLGTRVMYVPIAGLAALTIMISVFAGPVYDLAERSADELYNSSEYVEAVLNHEKSAADAGPRPGVDGRTGRVHAR”, “failed”.
“MSAICQVTGRQPGYGKSVSHSHRRTSRRWNPNVQRRKFYLPSEGRTITLNVSTKGLKVIDRDGIESVVAKIRARGEKILEHHHHHH”: the protein production entry is “failed”.
For “MSAITRYLAMLRLFGMLLCAAAIPSVATATVPVTVAVAASDVEEEAVEASAVGAEAEAARDAGYESAEVPALARRVTDLTATLDAAERARLEASLAALEARKGAQVAILMVPSTYPDSIEAYATRVFEAWKLGRKGIDDGVLVLVAKDDRRMRIEVGYGLEGTITDIDAGRIIREYMTPAFRQQDYAGGLEAAAQRLVRLIDGEALPPPPRDPLEPGAVRQTLAIAFLLGALGGVALLVRPRAWYWTLGAVVALAAALALGRHWPAGAMVALAEMVAVLGVGFGALLKYSRGARWFFAILVLYALGLFWAYRRYGLPVLHYGLAVPLSLGLSLLMLAGAWQGLRRGRRWAYLPGLLGLLLTLALECLLLLVDDPLNSIEALIILPAACLPLLIGCNFSAGGSGGGRRRGGDYASSSGSSSSSSSSSSSDSFSGGGGSSGGGGASGSWLEHHHHHH”, the protein production result is recorded as “failed”.
As for “MSAKRVFEKFDKNKDGKLSLDEFREVALAFSPYFTQEDIVKFFEEIDVDGNGELNADEFTSCIEKML”, the entry is “not failed”; as for “MSALIDTWFLGCRAAATAVLYVLFAVVAGGAVSAARAATVAASAPAPVTVGSGKKAVRQGISLELLVKPTHAEDGFSAAVVEGAYADVSLKMTDAATGHPVTVMQPRVWIDLRKGTGDFREKQMACSDKVRTYLQGTLSFRPDIDLNSYFVLTLNNDASISVIDPIIGVAGYSQLYAMILLKRPGEDWVFSFDGKRLYVTMPKAGEVAEIDTDSLAVVRNIPAGAMPVRMAFQPDSRYLWVGNDSSDPARSGVTVIDPFSGTQAAFIQTGAGHHEIAFADDSRYAFVTNQQSGTLTIIDIQSLAPVKTLRLGDGPVSVAYSALSKCAHVVCEGDGNLLVVDGLSHEIISRKTFEPGFREVRFAPGDRWYFTVNGKNGQILVFDAAGNELLHSTVVAGRPEHVSFSTEFAYIRSLGTADVTLIPLAALGKAAILTPLVVSGGSRPPADSPLLPPTADPIVVTPEGNSVLIASPSDGAVVYYMEGMGVPMGSFKTYGRLPRAVNVINRQLRQNVPGVFSSRVKIPLAGTYDVAVLLDSPRIVQCFEFSADANPALQRLKTERPVMVEFVGSALRVEAGRESVVRFRVTDPVTHEPVADLRDLIVVTSLVPTGAWRQQLVSRPVGNGIYEVTFTARKVGIYSFNFAIPSLKVKLYQLAGMMIHAVETPAEAGSDVPAGQKKD”, “failed”; as for “MSALRVTSPSVEYVQRPLGLDAAHPRLSWPMASAAPGRRQSAYQVRVASSAAGLSHPDVWDSGKVVSDDSVLVPYAGPPLKPRTRYFWSVRVWDADGGASEWSAPSWWETGLMGASQWSAKWISAPAPLTEAPSLEGSSWIWFPEGEPANSAPAATRWFRRTVDLPDDITGATLAISADNVYAVSVDGAEVARTDLEADNEGWRRPAVIDVLDHVHSGNNTLAVSASNASVGPAGWICVLVLTTASGEKKIFSDASWKSTDHEPADGWREPDFDDSGWPAAKVAAAWGAGPWGRVAPVASAANQLRHEFRLPHKKVSRARLYATALGLYEAHLNGRRVGRDQLAPGWTDYRKRVQYQTYDVTSSVRPGANALAAYVAPGWYAGNVGMFGPHQYGERPALLAQLEVEYADGTSERITSGPDWRAASGPIVSADLLSGETYDARKETAGWTSPGFDDRAWLAVRGADNDVPEQIVAQVDGPVRIAKELPARKVTEPKPGVFVLDLGQNMVGSVRLRVSGDAGTTVRLRHAEVLNPDGTIYTANLRSAAATDTYTLKGQGEETYEPRFTFHGFRYVEVTGFPGKPSTTSVTGRVMHTSAPFTFEFETNVPMLNKLHSNITWGQRGNFLSVPTDTPARDERLGWTGDINVFAPTAAYTMESARFLTKWLVDLRDAQTSDGAFTDVAPAVGNLGNGVAGWGDAGVTVPWALYQAYGDRQVLADALPSVHAWLRYLEKHSDGLLRPADGYGDWLNVSDETPKDVIATAYFAHSADLAARMATELGKDAAPYTDLFTRIRKAFQTAYVASDGKVKGDTQSAYVLTLSMNLVPDALRKAAADRLVALIEAKDWHLSTGFLGTPRLLPVLTDTGHTDVAYRLLHQRTFPSWGYPIDKGSTTMWERWDSIQPDGGFQTPEMNSFNHYAYGSVGEWMYANIAGIAPGRAGYRQVVIRPRPGGEVTSARATFASLHGPVSTRWQQRSGGFVLTCSVPPNTTAEVWIPADHPDRVQHTHGTFVRAEDGCAVFEVGSGSHRFTV”, “failed”.
